{
  "source": "paper PMC5371579",
  "about": "“Expression of a new laccase from Moniliophthora roreri at high levels in Pichia pastoris and its potential application in micropollutant degradation” (AMB Express, 2017)",
  "proteins": {"B1": {"name": "Mrl2 (Moniliophthora roreri MCA 2997) (protein)", "chain": "SIGPIADLVISNQDVSPDGFTRSAVVAGGDTIGPLIVGNKNDNLQINVVNNLDDDTMLQSTSIHWHGFFQQSTNWADGTAFVNQCPIAKGNSFLYDFDATDQAGTFWYHSHLSTQYCDGLRGPIVIYDPDDPHASLYDVDDESTVITLADWYHTKAKEITFGTPDSTLINGLGRWSQGNETDLSVITVTSGQRYRMRLINTACDAAYTFSIDNHTMTVIEADAVNIEPIEVDSLTIYAGQRYSFVLNADQAVGNYWIRANPNIGTMGYTNGINSAILRYDTAEEEEPDVLDITSTNSLSEADLVPLENPGAPGDPVVGGVDYALHLDFAFTSAATFTVNDATFVPPTVPVLLQILSGAQTADTLLPSGSVVALPSNSTIELSMTGGLLGLEHPIHLHGHNFDVVRVAGSTEYNYENPIRRDVVNAGSTSDNVTIRFTTDNPGPWILHCHIDWHLEAGFAIVFAEATDEWVDTIDPSDAWENLCPTYDALSDDDL", "notes": "native signal peptide replaced by S. cerevisiae alpha-factor leader (Kex2 cleavage; mature N-terminus SIGPI from primer); no tag (stop codon in reverse primer); codon-optimized gene; secreted from Pichia pastoris X-33, DEAE-purified, glycosylated (~90 kDa; calculated 54 kDa); EC 1.10.3.2"}},
  "assay_in_all_cases": "purified protein",
  "type_in_all_cases": "biochemical, Moniliophthora roreri",
  "key": {"purified protein [1]": {"substrate": "CCn1c(=NN=c2sc3cc(S(=O)(=O)O)ccc3n2CC)sc2cc(S(=O)(=O)O)ccc21", "settings": "100 mM citrate phosphate buffer at optimal pH (pH 2 stated for ABTS)"}, "purified protein [2]": {"substrate": "COc1cc(C=NN=Cc2cc(OC)c(O)c(OC)c2)cc(OC)c1O", "settings": "100 mM citrate phosphate buffer, pH 4 (optimum)"}, "purified protein [3]": {"substrate": "COc1cccc(OC)c1O", "settings": "100 mM citrate phosphate buffer, pH 4 (optimum)"}, "purified protein [4]": {"substrate": "COc1ccccc1O", "settings": "100 mM citrate phosphate buffer, pH 5 (optimum)"}},
  "data": [
    {"protein": "B1", "values": [
      {"measurement": "Km", "setting": "purified protein [1]", "result": "24.13 ± 1.9", "unit": "µM"},
      {"measurement": "kcat", "setting": "purified protein [1]", "result": 316, "unit": "s⁻¹"},
      {"measurement": "kcat/Km", "setting": "purified protein [1]", "result": "1.31e+07", "unit": "M⁻¹ s⁻¹"},
      {"measurement": "Km", "setting": "purified protein [2]", "result": "12.45 ± 1.6", "unit": "µM"},
      {"measurement": "kcat", "setting": "purified protein [2]", "result": 21, "unit": "s⁻¹"},
      {"measurement": "kcat/Km", "setting": "purified protein [2]", "result": "1.68e+06", "unit": "M⁻¹ s⁻¹"},
      {"measurement": "Km", "setting": "purified protein [3]", "result": "358 ± 58.5", "unit": "µM"},
      {"measurement": "kcat", "setting": "purified protein [3]", "result": 74, "unit": "s⁻¹"},
      {"measurement": "kcat/Km", "setting": "purified protein [3]", "result": 207000, "unit": "M⁻¹ s⁻¹"},
      {"measurement": "Km", "setting": "purified protein [4]", "result": "2235 ± 117.5", "unit": "µM"},
      {"measurement": "kcat", "setting": "purified protein [4]", "result": 37, "unit": "s⁻¹"},
      {"measurement": "kcat/Km", "setting": "purified protein [4]", "result": 16000, "unit": "M⁻¹ s⁻¹"}
    ]}
  ]
}
